One molecule from patent US20150260731A1 (ACUMEN PHARMACEUTICALS, published 2015) can be followed below.

The assay addresses T1, amyloid β-derived diffusible ligands (ADDLs), oligomers of Aβ1-42.
T1 construct: number of chains not fixed; also called Aβ oligomers; Aβ1-42 oligomers
Nature of the assay: sandwich ELISA, 6E10 as capture and as detection antibody, Aβ oligomers titrated (log RFU axis).

B1: 6E10 (antibody, V domains shown)
VH: EVQLQQSGAELVKPGASVKLCTASGFNIKDTYIHWVKQRPEQGLEWIGRFDPVNVNTRYDSRFRGKATITSDASSNTAYLHLNSLTSEDTAVYYCSRSYYNGRRRFTYWGQGTLVTVSA
VL: DIVMTQSPSSLTVTAGEKVALTCKASQSLLSSGNQKNYLTWYQQKPGQPPKLLIYWASIRESGVPDRFTGSGSGTFFTLTISSVQAEDLAVYYCQNDYNYPFTFGSGTKLEIK
As a reminder, the EC50 (read off the curve) is the concentration at which the effect is half-maximal. As to B1, the “EC50 (read off the curve)” value was ~5 nM.
